Results on 54 variants are retold here after the Human Domainome abundance scans (Beltran et al. 2025).

The chains are these.
B1: Transcription elongation factor A N-terminal and central domain-containing protein, residues 30 to 77; numbered along this chain, Q8N8B7 (parent)
chain: LTELETIYVTKEHLQETDVVRAVYRVLKNCPSVALKKKAKCLLSKWKA

± gives the uncertainty stated by the source.

The data set covers variants of B1. Briefly: abundance fitness (aPCA) (normalised: wild type 0, dead -1); higher = more abundant; growth selection in yeast, the domain comes from the species named. To be noted: Homo sapiens.
As for LTELETIYVTKSHLQETDVVRAVYRVLKNCPSVALKKKAKCLLSKWKA, the abundance fitness was -0.168 ± 0.091.
As to LTELETIYVTKLHLQETDVVRAVYRVLKNCPSVALKKKAKCLLSKWKA, the abundance fitness is -0.792 ± 0.096.
As for LTELETIYVTKTHLQETDVVRAVYRVLKNCPSVALKKKAKCLLSKWKA, the figure is -0.068 ± 0.1.
As for LTELETIYVTKIHLQETDVVRAVYRVLKNCPSVALKKKAKCLLSKWKA, the figure is -0.707 ± 0.15; as for LTELETIYVTKQHLQETDVVRAVYRVLKNCPSVALKKKAKCLLSKWKA, -0.278 ± 0.13.
As for LTELETIYVTKCHLQETDVVRAVYRVLKNCPSVALKKKAKCLLSKWKA, the figure is -0.79 ± 0.17.
LTELETIYVTKGHLQETDVVRAVYRVLKNCPSVALKKKAKCLLSKWKA: the abundance fitness is -0.598 ± 0.086.
As for LTELETIYVTKNHLQETDVVRAVYRVLKNCPSVALKKKAKCLLSKWKA, the figure is -0.34 ± 0.17; as for LTELETIYVTKAHLQETDVVRAVYRVLKNCPSVALKKKAKCLLSKWKA, -0.492 ± 0.099; as for LTELETIYVTKRHLQETDVVRAVYRVLKNCPSVALKKKAKCLLSKWKA, -0.24 ± 0.079.
The result for LTELETIYVKKEHLQETDVVRAVYRVLKNCPSVALKKKAKCLLSKWKA reads -0.198 ± 0.098; that for LTELETIYVYKEHLQETDVVRAVYRVLKNCPSVALKKKAKCLLSKWKA, -0.771 ± 0.22.
The result for LTELETIYVCKEHLQETDVVRAVYRVLKNCPSVALKKKAKCLLSKWKA reads -0.566 ± 0.18.
As to LTELETIYVEKEHLQETDVVRAVYRVLKNCPSVALKKKAKCLLSKWKA, the abundance fitness is -0.139 ± 0.1.
As for LTELETIYVFKEHLQETDVVRAVYRVLKNCPSVALKKKAKCLLSKWKA, the figure is -0.547 ± 0.22; as for LTELETIYVRKEHLQETDVVRAVYRVLKNCPSVALKKKAKCLLSKWKA, -0.041 ± 0.069; as for LTELETIYVQKEHLQETDVVRAVYRVLKNCPSVALKKKAKCLLSKWKA, 0.117 ± 0.11.
The result for LTELETIYVWKEHLQETDVVRAVYRVLKNCPSVALKKKAKCLLSKWKA reads -0.315 ± 0.095.
As for LTELETIYVLKEHLQETDVVRAVYRVLKNCPSVALKKKAKCLLSKWKA, the figure is -0.674 ± 0.14; as for LTELETIYVIKEHLQETDVVRAVYRVLKNCPSVALKKKAKCLLSKWKA, -0.657 ± 0.43; as for LTELETIYVVKEHLQETDVVRAVYRVLKNCPSVALKKKAKCLLSKWKA, -0.18 ± 0.12.
Take LTELETIYVSKEHLQETDVVRAVYRVLKNCPSVALKKKAKCLLSKWKA: the abundance fitness was -0.121 ± 0.084.
The result for LTELETIYVMKEHLQETDVVRAVYRVLKNCPSVALKKKAKCLLSKWKA reads -0.143 ± 0.12.
As for LTELETIYVDKEHLQETDVVRAVYRVLKNCPSVALKKKAKCLLSKWKA, the figure is -0.31 ± 0.23.
Regarding LTELETIYVNKEHLQETDVVRAVYRVLKNCPSVALKKKAKCLLSKWKA, the abundance fitness is -0.546 ± 0.16.
As for LTELETIYVGKEHLQETDVVRAVYRVLKNCPSVALKKKAKCLLSKWKA, the figure is -0.164 ± 0.067; as for LTELETIYVHKEHLQETDVVRAVYRVLKNCPSVALKKKAKCLLSKWKA, -0.23 ± 0.36.
Take LTELETIYVAKEHLQETDVVRAVYRVLKNCPSVALKKKAKCLLSKWKA: the abundance fitness was -0.017 ± 0.079.
Take LTELENIYVTKEHLQETDVVRAVYRVLKNCPSVALKKKAKCLLSKWKA: the abundance fitness is -0.514 ± 0.21.
As for LTELEYIYVTKEHLQETDVVRAVYRVLKNCPSVALKKKAKCLLSKWKA, the figure is -0.513 ± 0.32; as for LTELESIYVTKEHLQETDVVRAVYRVLKNCPSVALKKKAKCLLSKWKA, 0.12 ± 0.082.
As for LTELEMIYVTKEHLQETDVVRAVYRVLKNCPSVALKKKAKCLLSKWKA, the figure is -0.107 ± 0.11; as for LTELEQIYVTKEHLQETDVVRAVYRVLKNCPSVALKKKAKCLLSKWKA, 0.08 ± 0.13.
The result for LTELERIYVTKEHLQETDVVRAVYRVLKNCPSVALKKKAKCLLSKWKA reads -0.074 ± 0.068; that for LTELEKIYVTKEHLQETDVVRAVYRVLKNCPSVALKKKAKCLLSKWKA, -0.059 ± 0.096; that for LTELELIYVTKEHLQETDVVRAVYRVLKNCPSVALKKKAKCLLSKWKA, -0.616 ± 0.091.
For LTELETQYVTKEHLQETDVVRAVYRVLKNCPSVALKKKAKCLLSKWKA, the abundance fitness was determined as 0.015 ± 0.11.
On to LTELETEYVTKEHLQETDVVRAVYRVLKNCPSVALKKKAKCLLSKWKA, for which the abundance fitness turned out to be 0.3 ± 0.085.
The result for LTELETDYVTKEHLQETDVVRAVYRVLKNCPSVALKKKAKCLLSKWKA reads 0.203 ± 0.087.
The result for LTELETVYVTKEHLQETDVVRAVYRVLKNCPSVALKKKAKCLLSKWKA reads 0.006 ± 0.072; that for LTELETGYVTKEHLQETDVVRAVYRVLKNCPSVALKKKAKCLLSKWKA, 0.224 ± 0.065.
Consider LTELETWYVTKEHLQETDVVRAVYRVLKNCPSVALKKKAKCLLSKWKA, for which the abundance fitness was -0.631 ± 0.12.
As for LTELETNYVTKEHLQETDVVRAVYRVLKNCPSVALKKKAKCLLSKWKA, the figure is 0.081 ± 0.16; as for LTELETFYVTKEHLQETDVVRAVYRVLKNCPSVALKKKAKCLLSKWKA, -0.323 ± 0.17; as for LTELETLYVTKEHLQETDVVRAVYRVLKNCPSVALKKKAKCLLSKWKA, -0.07 ± 0.079.
As for LTELETSYVTKEHLQETDVVRAVYRVLKNCPSVALKKKAKCLLSKWKA, the figure is 0.147 ± 0.087.
As for LTELETPYVTKEHLQETDVVRAVYRVLKNCPSVALKKKAKCLLSKWKA, the figure is 0.091 ± 0.13; as for LTELETHYVTKEHLQETDVVRAVYRVLKNCPSVALKKKAKCLLSKWKA, -0.212 ± 0.36.
For the variant LTELETMYVTKEHLQETDVVRAVYRVLKNCPSVALKKKAKCLLSKWKA, the abundance fitness came to 0.244 ± 0.11.
The result for LTELETRYVTKEHLQETDVVRAVYRVLKNCPSVALKKKAKCLLSKWKA reads 0.008 ± 0.069.
The result for LTELETCYVTKEHLQETDVVRAVYRVLKNCPSVALKKKAKCLLSKWKA reads -0.541 ± 0.13; that for LTELETYYVTKEHLQETDVVRAVYRVLKNCPSVALKKKAKCLLSKWKA, -0.422 ± 0.21; that for LTELETAYVTKEHLQETDVVRAVYRVLKNCPSVALKKKAKCLLSKWKA, 0.131 ± 0.076.
As for LTELETTYVTKEHLQETDVVRAVYRVLKNCPSVALKKKAKCLLSKWKA, the figure is 0.192 ± 0.11.
